Laboratory results: US20260191954A1, “COMPOSITIONS AND METHODS FOR NEOADJUVANT TREATMENT IN CANCER” (INNATE PHARMA, priority 2022, published 2026)

Assays:
OAW42 (CD39+) cells = assay: eATP release in OAW42 (CD39+) cells with IPH5201 and docetaxel; type: cell-based; details: IPH5201 10 or 50 μg/mL + docetaxel dose range, 30 h, FIG. 3B
Experimental: OAW42 (CD39+) cells were incubated with 10 or 50 μg/mL of IPH5201 and treated with a dose range of docetaxel. The measure of eATP release was performed 30 h after docetaxel treatment. eATP was measured in the cell culture supernatant with a luminescent-based assay (CellTiter-Glo®) and expressed in Luminescence Arbitrary Unit (AU). Means+/−SD.

[1] = Pharmacokinetics of IPH5201 in phase 1 patients; type: in vivo, human
Experimental: (§1) A first-in-human, multicentre, non-randomised, open-label, phase 1 study was conducted in order to assess the safety, efficacy, pharmacokinetics (PK) and pharmacodynamics (PD) of IPH5201±durvalumab (Imfinzi™) in patients with advanced solid tumours. The study consisted of two consecutive dose-escalation parts: • Part 1: Ascending doses of IPH5201 (100, 300, 1000 and 3000 mg) every 3 weeks (Q3W). • Part 2: Ascending doses of IPH5201 (300, 1000 and 3000 mg) and 1500 mg durvalumab Q3W.
PK/PD modelling and simulation were used to guide selection of doses. IPH5201 PK data from 45 patients and PD data of free membrane CD39 (mCD39) occupancy on monocytes from 43 patients were available.
On the left hand panel, curves from bottom to top represent 100 mg, 300 mg, 1000 mg and 3000 mg doses of IPH5201; on the right hand panel curves from bottom to top represent 300 mg, 1000 mg (up to the 21 day time point) and 3000 mg doses of IPH5201. The PK of IPH5201 was non-linear at ≤300 mg and linear at ≥1000 mg. Free soluble CD39 was above the lower limit of quantitation at cycle 1, day 2 or later in 6/40 patients (n=2, 100 mg; n=1, 1000 mg; n=3, 3000 mg).

[2] = Phase 1 study of IPH5201 +/- durvalumab in advanced solid tumours: safety; type: in vivo
Experimental: as §1
PD cohorts enrolled patients with advanced squamous cell lung carcinoma or advanced pancreatic ductal adenocarcinoma in the top two dose levels of Parts 1 and 2. Primary endpoints were safety and tolerability. Key secondary endpoints included preliminary antitumour activity measured by objective response and disease control per RECIST v1.1, PK and immunogenicity. Exploratory endpoints included efficacy measured by duration of response and progression-free survival (PFS) per RECIST v1.1, overall survival and assessment of biomarkers.
Key inclusion criteria were: • Adults aged ≥18 years. • Histologically or cytologically confirmed advanced solid tumours. • At least one measurable lesion per RECIST v1.1. • Refractoriness to standard therapy or disease for which no standard therapy exists. • Eastern Cooperative Oncology Group Performance Status of 0 or 1. • Archival or fresh tumour sample. • Key exclusion criteria were: • Previous treatment with any agents targeting CD73, CD39, or adenosine receptors. • Treatment with any conventional or investigational anticancer therapy within 21 days of the first planned dose. • Active or prior autoimmune or inflammatory disorders within the past 5 years. • Cardiac and vascular criteria including presence of acute coronary syndrome or thromboembolic events within 6 months prior to enrolment, congestive heart failure, serious cardiac arrhythmia requiring medication, or uncontrolled hypertension. • Untreated metastases to the central nervous system.
Overall, 57 patients received treatment (IPH5201, n=38; IPH5201+durvalumab, n=19). […] Treatment-emergent adverse events (TEAEs) occurred in 96.5% of patients; 40.4% had grade ≥3 TEAEs. […] Treatment-related adverse events (TRAEs) occurred in 66.7% of patients (37/57 (64.9%) related to IPH5201; 11/19 (57.9%) related to durvalumab). […] The most common TRAEs were infusion-related reactions (21.1%), fatigue (17.5%), nausea, arthralgia, tumour pain and pruritus (8.8% each). […] Maximum tolerated dose (MTD) was not reached.

[3] = biological target: T1, membrane-bound CD39 on immune cells (Homo sapiens, UniProt P49961); assay: Free CD39 on monocytes and B cells in patient blood (flow cytometry); type: in vivo
T1 construct: To assess free CD39 on monocytes and B cells, blood samples are spiked with an antibody; endogenous in cells; host or cells: monocytes and B cells in patients' blood
T1 sequence (P49961 1-510): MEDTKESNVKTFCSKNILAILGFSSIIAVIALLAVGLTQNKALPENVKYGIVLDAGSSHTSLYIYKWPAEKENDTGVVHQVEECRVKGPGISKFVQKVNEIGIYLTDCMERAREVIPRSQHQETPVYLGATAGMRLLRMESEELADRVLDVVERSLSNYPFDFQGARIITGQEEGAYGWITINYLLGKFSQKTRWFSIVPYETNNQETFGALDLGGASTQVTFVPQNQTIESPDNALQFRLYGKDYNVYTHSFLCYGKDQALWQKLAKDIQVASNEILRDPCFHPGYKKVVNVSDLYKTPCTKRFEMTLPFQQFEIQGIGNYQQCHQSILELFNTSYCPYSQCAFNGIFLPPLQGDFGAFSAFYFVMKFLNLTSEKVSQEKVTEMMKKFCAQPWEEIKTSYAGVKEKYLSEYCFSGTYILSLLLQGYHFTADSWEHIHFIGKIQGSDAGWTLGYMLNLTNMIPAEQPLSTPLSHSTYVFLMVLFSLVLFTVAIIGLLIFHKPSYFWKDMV
Experimental: CD39 occupancy by IPH5201 in samples from patients was determined by assessing free soluble CD39 and free membrane bound CD39.
To assess free CD39 on monocytes and B cells, blood samples are spiked with an antibody having the VH and VL of IPH5201 and a mouse Fc domain and labelled with a fluorochrome. A second non-competing anti-CD39 monoclonal antibody labelled with a distinct fluorochrome is used to bind to a site on CD39 distinct from the capture antibody. CD14, CD19 and CD45 are detected by incubation with anti-CD14, CD19 and CD45 monoclonal antibodies each labelled with a distinct fluorochrome. Binding is detected by flow cytometry.

[4] = serum IPH5201, fixed doses Q3W, mono or with durvalumab, FIG. 12

B1: IPH5201: humanized anti-CD39 antibody having the respective heavy and light chain amino acid sequences of SEQ ID NOS: 10 and 11 (antibody)
heavy: QVQLVQSGAEVKKPGASVKVSCKASGYTFTDYNMHWVRQAPGQRLEWIGYIVPLNGGSTFNQKFKGRATITVDTSARTAYMELSSLRSEDTAVYYCARGGTRFAYWGQGTLVTVSSASTKGPSVFPLAPSSKSTSGGTAALGCLVKDYFPEPVTVSWNSGALTSGVHTFPAVLQSSGLYSLSSVVTVPSSSLGTQTYICNVNHKPSNTKVDKRVEPKSCDKTHTCPPCPAPEAEGAPSVFLFPPKPKDTLMISRTPEVTCVVVDVSHEDPEVKFNWYVDGVEVHNAKTKPREEQYNSTYRVVSVLTVLHQDWLNGKEYKCKVSNKALPSSIEKTISKAKGQPREPQVYTLPPSREEMTKNQVSLTCLVKGFYPSDIAVEWESNGQPENNYKTTPPVLDSDGSFFLYSKLTVDKSRWQQGNVFSCSVMHEALHNHYTQKSLSLSPGK
light: DIVMTQSPDSLAVSLGERATINCRASESVDNFGVSFMYWFQQKPGQPPKLLIYGASNQGSGVPDRFSGSGSGTDFTLTISSLQAEDVAVYYCQQTKEVPYTFGGGTKVEIKRTVAAPSVFIFPPSDEQLKSGTASVVCLLNNFYPREAKVQWKVDNALQSGNSQESVTEQDSKDSTYSLSSTLTLSKADYEKHKVYACEVTHQGLSSPVTKSFNRGEC
- eATP accumulation (OAW42 (CD39+) cells): eATP accumulated significantly
- population PK model best describing IPH5201 PK ([1]; PK data from 45 patients): 2-compartment model with parallel linear and saturatable kinetics
- dose range in which PK was linear [1, 4]: ≥ 1000 mg
- dose range in which PK was non-linear [1, 4]: ≤ 300 mg
- deaths due to treatment ([2]; all 57 treated patients): no deaths due to treatment
- Maximum tolerated dose (MTD) ([2]; doses up to 3000 mg Q3W): not reached
- DLTs during dose escalation ([2]; in vivo): No DLTs were observed
- TEAE: anaemia ([2]; in vivo): 19.3%
- TEAE: decreased appetite ([2]; in vivo): 26.3%
- TEAE: fatigue ([2]; in vivo): 28.1%
- TEAE: infusion-related reactions ([2]; in vivo): 21.1%
- TEAE: tumour pain ([2]; in vivo): 19.3%
- TRAE: arthralgia ([2]; in vivo): 8.8%
- TRAE: fatigue ([2]; in vivo): 17.5%
- TRAE: infusion-related reactions ([2]; in vivo): 21.1%
- TRAE: nausea ([2]; in vivo): 8.8%
- TRAE: pruritus ([2]; in vivo): 8.8%
- TRAE: tumour pain ([2]; in vivo): 8.8%
- correlation of dose with incidence of TEAEs of at least grade 3 ([2]; in vivo): No significant correlation
- grade 4 TRAEs ([2]; in vivo): no grade 4 TRAEs
- patients with TRAEs related to IPH5201 ([2]; in vivo): 64.9%
- patients with TRAEs related to IPH5201, count ([2]; in vivo): 37/57
- patients with grade 3 TRAEs ([2]; in vivo): 10.5%
- patients with grade ≥3 TEAEs ([2]; in vivo): 40.4%
- patients with treatment-emergent adverse events (TEAEs) ([2]; in vivo): 96.5%
- patients with treatment-related adverse events (TRAEs) ([2]; in vivo): 66.7%
- free CD39 at C2D1, monocytes ([3]; 100 mg IPH5201 dose, cycle 2 day 1): full rebound
- free CD39 at C2D1, monocytes ([3]; 300 mg IPH5201 dose, cycle 2 day 1): partial rebound
- free CD39 at C2D1, B-cells ([3]; only the 100 mg IPH5201 dose, cycle 2 day 1): rebound
- dose at which IPH5201 saturated binding of membrane-bound CD39 on immune cells ([3]; patient samples, FIG. 11B): 3000 mg
